From patent publication US20130007915A1

Biological target: actin filament
Experiment: cell-based or functional assay

| sliding velocity (in vitro sliding filament assay) [µm/sec] | Substance |
| --- | --- |
| 16.2 | Flag-chimera XI protein (chimeric myosin XI: Chara corallina myosin XI motor domain on the A. thaliana MYA2 backbone, FLAG-tagged) |
| 7 | wild-type A. thaliana myosin XI-2 (MYA2), expressed from the Flag-MYA2 XI gene (from UniProt Q9LKB9 1-1505) |
